From patent US20250340608A1 (PROTAGONIST THERAPEUTICS, published 2025)
Numbered stars: 1 amine (or outer) side, 2 acyl side, 3 side chain; on linkers, the order of the positions; unused ones are H or OH. Bridge positions count the residues as written; N and C are the ends. Square brackets hold non-standard residues; d marks the D form. Primed or numbered codes have the meaning given here. Side chains are listed from the residue outwards. Ends that are not written are not given here. * marks the point of attachment. Ida = iminodiacetic acid, O=C(CN(CC(=O)[*:3])[*:1])[*:2]; Dip = N[C@H](C(=O)O)C(c1ccccc1)c1ccccc1; γGlu = O=C(O)[C@H](CCC(=O)[*:2])N[*:1]; Palmitoyl = CCCCCCCCCCCCCCCC(=O)*; β3hP = O=C(O)C[C@@H]1CCCN1; Isovaleryl = CC(C)CC(=O)*; PEG3′ = not defined here; dapa = not defined here

T1: human ferroportin (SLC40A1) fused in frame with GFP, stably expressed in HEK293 cells (human, UniProt Q9NP59 1-571)
T1 sequence (looked up): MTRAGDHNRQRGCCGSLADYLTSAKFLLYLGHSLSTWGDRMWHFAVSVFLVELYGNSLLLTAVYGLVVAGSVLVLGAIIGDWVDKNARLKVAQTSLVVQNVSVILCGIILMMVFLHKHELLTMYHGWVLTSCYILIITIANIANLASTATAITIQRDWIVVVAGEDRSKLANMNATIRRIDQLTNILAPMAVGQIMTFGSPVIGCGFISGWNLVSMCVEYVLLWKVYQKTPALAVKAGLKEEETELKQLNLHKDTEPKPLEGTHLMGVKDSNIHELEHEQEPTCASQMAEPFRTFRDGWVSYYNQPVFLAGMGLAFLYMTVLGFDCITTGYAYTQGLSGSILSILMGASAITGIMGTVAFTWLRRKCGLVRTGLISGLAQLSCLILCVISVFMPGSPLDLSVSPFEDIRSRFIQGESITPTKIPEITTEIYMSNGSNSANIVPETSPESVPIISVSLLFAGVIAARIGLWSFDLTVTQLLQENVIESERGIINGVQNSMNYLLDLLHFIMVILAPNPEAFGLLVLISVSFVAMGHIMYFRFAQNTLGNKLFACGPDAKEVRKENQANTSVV

T2: human ferroportin (SLC40A1) fused in frame with GFP, stably expressed in HEK293 cells (human, UniProt Q9NP59 1-571)
T2 sequence (looked up): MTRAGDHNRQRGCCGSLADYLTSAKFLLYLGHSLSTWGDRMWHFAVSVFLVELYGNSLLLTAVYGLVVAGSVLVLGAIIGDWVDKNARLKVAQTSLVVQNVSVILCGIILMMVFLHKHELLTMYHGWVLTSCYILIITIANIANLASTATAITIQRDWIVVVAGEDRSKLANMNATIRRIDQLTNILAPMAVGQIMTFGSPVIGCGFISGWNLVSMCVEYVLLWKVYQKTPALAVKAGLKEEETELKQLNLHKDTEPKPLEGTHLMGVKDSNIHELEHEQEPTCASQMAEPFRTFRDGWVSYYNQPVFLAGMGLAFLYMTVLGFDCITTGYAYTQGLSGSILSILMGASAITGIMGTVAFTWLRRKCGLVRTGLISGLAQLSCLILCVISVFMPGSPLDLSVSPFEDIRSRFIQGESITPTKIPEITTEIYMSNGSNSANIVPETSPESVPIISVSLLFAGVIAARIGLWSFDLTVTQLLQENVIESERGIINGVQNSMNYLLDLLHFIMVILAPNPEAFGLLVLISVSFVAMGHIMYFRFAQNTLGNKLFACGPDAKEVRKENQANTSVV


Target: T1, human ferroportin (SLC40A1) fused in …
Experiment: cell-based or functional assay

Potency EC50	Potency EC50 (nM)	Binder
149 nM		H-DTHFPICIFGPHRSKGWVCM-NH2 (cysteine pairing not given here) [Compound 27]
206 nM		H-DTHFPICIFGPASKGWVCM-NH2 (cysteine pairing not given here) [Compound 34]
184 nM		H-ATHFPICIFGPRSKGWVCM-NH2 (cysteine pairing not given here) [Compound 33]
2470 nM		H-DTHFPICIAGPRSKGWVCM-NH2 (cysteine pairing not given here) [Compound 67]
382 nM		H-DTHFPCIAF-NH2 [Compound 51]
388 nM		H-DAHFPCIIF-NH2 [Compound 52]
	> 1000 nM	{Palmitoyl-PEG3′}-DTHFPCIKFGPRSKGWVCK-NH2 (cysteine pairing not given here) [Compound 217]
9 nM		Isovaleryl-DTHFPCIIFGPRSKGWVCK-NH2 (not fully specified (bridges); cysteine pairing not given here) [Compound 11]
	> 1000 nM	H-DTHFPCIKFGPRSKGWVCK-NH2 (cysteine pairing not given here) [Compound 215]
175 nM		H-DTHFPICIFGPRSKAWVCM-NH2 (cysteine pairing not given here) [Compound 31]
498 nM		H-DTAFPICIFGPRSKGWVCM-NH2 (cysteine pairing not given here) [Compound 60]
	> 1000 nM	Palmitoyl-DTHFPCIKFGPRSKGWVCK-NH2 (cysteine pairing not given here) [Compound 216]
	> 10000 nM	H-DTHFPICAFGPRSKGWVCM-NH2 (cysteine pairing not given here) [Compound 68]
46 nM		H-DTHFPCIIFGPRSKGWVCM-NH2 (cysteine pairing not given here) [Compound 21]
88 nM		H-DTHFPICIFGPRAKGWVCM-NH2 (cysteine pairing not given here) [Compound 28]
9430 nM		H-DTHFPICIFAPRSKGWVCM-NH2 (cysteine pairing not given here) [Compound 22]
147 nM		H-DTHFAICIFGPRSKGWVCM-NH2 (cysteine pairing not given here) [Compound 26]
5 nM		Isovaleryl-DTHFPICIFGPRSKGWVC-NH2 (not fully specified (bridges); cysteine pairing not given here) [Compound 2]
313 nM		H-DTHFPICIFGPRSKGWACM-NH2 (cysteine pairing not given here) [Compound 47]
88 nM		H-DTHFPICIFGPRAKGWVCM-NH2 (cysteine pairing not given here) [Compound 16]
441 nM		H-DTHFPCIFF-NH2 [Compound 56]
254 nM		H-DTHAPICIFGPRSKGWVCM-NH2 (cysteine pairing not given here) [Compound 38]
419 nM		H-DTHFPCIIFK-NH2 [Compound 55]
520 nM		H-DTHFPICIFGPRSKGAVCM-NH2 (cysteine pairing not given here) [Compound 66]
15 nM		Isovaleryl-DTHFPCIKFEPRSKKWVCK-NH2 (not fully specified (bridges); cysteine pairing not given here) [Compound 214]
125 nM		H-DTHFPICIFGPRSKGWVCM-NH2 (not fully specified (bridges); cysteine pairing not given here) [Compound 18]
17 nM		[Ida]TH[Dip][β3hP]ICIFGPRSKGWVCM-NH2 (disulfide 7-18 (inferred)) [Compound 5]

Target: T2, human ferroportin (SLC40A1) fused in …
Experiment: cell-based or functional assay

Potency EC50	Binder
60 nM	Isovaleryl-ATHFPCIKFGPRSKGWVCK-NH2 (not fully specified (bridges); cysteine pairing not given here) [Compound 234]
8 nM	Isovaleryl-DTHFPCIKFEPK([γGlu-Palmitoyl])SKGWECK-NH2 (not fully specified (bridges); cysteine pairing not given here) [Compound 242]
4 nM	Isovaleryl-DTHFPCIKFEPRSKK([γGlu-Palmitoyl])CK-NH2 (not fully specified (bridges); cysteine pairing not given here) [Compound 222]
> 500 nM	Isovaleryl-DTHAPCIKFGPRSKGWVCK-NH2 (not fully specified (bridges); cysteine pairing not given here) [Compound 236]
4 nM	DTHFPCIKFEPRSKGCKK (not fully specified; N-terminal isovaleric acid; K18(isoglu-Palm); C-terminal NH2) [Compound 224]
50 nM	Isovaleryl-DTHFPCIKAGPRSKGWVCK-NH2 (not fully specified (bridges); cysteine pairing not given here) [Compound 237]
17 nM	Isovaleryl-DTHFPCIK([dapa-Palmitoyl])FEPRSKGCK-NH2 (not fully specified (bridges); cysteine pairing not given here; reading uncertain) [Compound 225]
7 nM	Isovaleryl-DTHFPCIKFEPRSK([dapa-Palmitoyl])GCK-NH2 (not fully specified (bridges); cysteine pairing not given here; reading uncertain) [Compound 228]
10 nM	Isovaleryl-DTHFPCIKFEPK([dapa-Palmitoyl])SKGCK-NH2 (not fully specified (bridges); cysteine pairing not given here; reading uncertain) [Compound 227]
6 nM	DTHFPCIKFKPRSKGWECK (not fully specified; N-terminal isovaleric acid; K10(isoGlu-Palm); C-terminal NH2) [Compound 241]
10 nM	Isovaleryl-DTHFPCIKFEPRSKGCK([dapa-Palmitoyl])K-NH2 (not fully specified (bridges); cysteine pairing not given here; reading uncertain) [Compound 230]
7 nM	DTHFPCIKFKPRSKGWVC (N-terminal isovaleric acid; K10(mysteric acid); C-terminal NH2) [Compound 247]
5 nM	Isovaleryl-DTHFPCIKFEPK([γGlu-Palmitoyl])SKGCK-NH2 (not fully specified (bridges); cysteine pairing not given here) [Compound 220]
